# B1: TRU(S6)-1064 (Fc fusion)
# VH: EVQLVESGGGLVQPGGSLRLSCAASGFTFNTYAMNWVRQAPGKGLEWVGRTVTKSNKYATYYADSVSDRFTISRDDSKNSLYLQMNSLKTEDTAVYYCAREDYYGTLDYWGQGTLVTVSS
# VL: DIVLTQSPASLAVSPGQRATITCRASESVHNFGISFMNWYQQKPGQPPKLLIYTASNQGSGVPARFSGSGSGTDFTLTINPVEANDTANYYCHQGKEVPWTFGQGTKVEIK
# notes: Humanized SMIP fusion protein (single chain)
# B2: BSF2-77 mAb (antibody, V domains shown)
# VH: QVQLQQPGAELVKPGASVKLSCKASGYIFTSYWMHWVKQRPGQGLEWIGEINPSNGRTNYNERFKSKATLTVDKSSSTAYIQLSSLTSDDSAVYYCSRSDTKATCDYWGQGTTLTVSS
# VL: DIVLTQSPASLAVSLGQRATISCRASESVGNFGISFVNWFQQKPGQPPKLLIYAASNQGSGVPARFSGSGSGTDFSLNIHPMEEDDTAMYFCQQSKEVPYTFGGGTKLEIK
# B3: CLB-8 mAb (antibody, V domains shown)
# VH: EVQLVESGGKLLKPGGSLKLSCAASGFTFSSFAMSWFRQSPEKRLEWVAEISSGGSYTYYPDTVTGRFTISRDNAKNTLYLEMSSLRSEDTAMYYCARGLWGYYALDYWGQGTSVTVSS
# VL: QIVLIQSPAIMSASPGEKVTMTCSASSSVSYMYWYQQKPGSSPRLLIYDTSNLASGVPVRFSGSGSGTSYSLTISRMEAEDAATYYCQQWSGYPYTFGGGTKLEIKR
# B4: TRU(XT6)-1013 (Fc fusion)
# chain: LPAQVAFTPYAPEPGSTCRLREYYDQTAQMCCSKCSPGQHAKVFCTKTSDTVCDSCEDSTYTQLWNWVPECLSCGSRCSSDQVETQACTREQNRICTCRPGWYCALSKQEGCRLCAPLRKCRPGFGVARPGTETSDVVCKPCAPGTFSNTTSSTDICRPHQICNVVAIPGNASMDAVCTSTSPTRSMAPGAVHLPQPVSTRSQHTQPTPEPSTAPSTSFLLPMGPSPPAEGSTGDTGEPKSSDKTHTCPPCPAPEAAGAPSVFLFPPKPKDTLMISRTPEVTCVVVDVSHEDPEVKFNWYVDGVEVHNAKTKPREEQYNSTYRVVSVLTVLHQDWLNGKAYACAVSNKALPAPIEKTISKAKGQPREPQVYTLPPSRDELTKNQVSLTCLVKGFYPSDIAVEWESNGQPENNYKTTPPVLDSDGSFFLYSKLTVDKSRWQQGNVFSCSVMHEALHNHYTQKSLSLSPGQRHNNSSLNTRTQKARHSPNSEVQLLESGGGLVQPGGSLRLSCAASGFTFSGYVMGWVRQAPGKGLEWVSSISPSGGYTLYADSVKGRFTISRDNSKNTLYLQMNSLRAEDTAVYYCARAFSTRWYWGAFDIWGQGTMVTVSSGGGGSGGGGSGGGGSQDIQMTQSPATLSLSPGERATLSCRASQSVRSYLAWYQQKPGQAPRLLIYDASNRATGIPARFSGSGSGTDFTLTITSLQPEDIATYYCQQYDNLPLTFGGGTKVEIK
# notes: Xceptor, TNFRSF1B ectodomain N-terminal, anti-IL6xR domain C-terminal
# What was measured:
# recombinant human IL6 [1] = molecular target: T1, recombinant human IL6 (human, UniProt P05231 30-212); assay: SPR Biacore, binder captured by anti-human Fc, single cycle kinetics
# T1 construct: also called rhIL6; IL6 monomer
# Procedure: (§1) Anti-IL6 binding domains were captured using immobilized anti-mouse Fc polyclonal antibody in the case of anti-IL6 antibodies, or an anti-human Fc monoclonal in the case of SMIPs, Xceptors, and humanized SMIPs. IL6 binding to the anti-IL6 binding domains was studied using single cycle kinetics. Five sequential injections of IL6 were made per cycle starting with the lowest concentration of IL6 (6.4 pM) and progressing to the highest concentration (4,000 pM). The flow rate was 45 μL per minute and each injection of IL6 lasted 7 minutes. At the end of the highest IL6 concentration injection, IL6 was allowed to dissociate for 30 minutes. The data were fit to a one-to-one binding single cycle kinetics model. HIL6 binding was studied by injecting a single concentration of HIL6 (from 6.4-4,000 pM) per cycle for 7 minutes, and then allowing the bound HIL6 to dissociate for either 30 seconds (0 to 800 pM) or one hour (0 and 4,000 pM). […] All analysis was performed using BIAevaluation software.
# Hyper-IL6 [2] = molecular target: T2, Hyper-IL6 (human); assay: SPR Biacore, binder captured by anti-human Fc, HIL6 injected
# T2 chain: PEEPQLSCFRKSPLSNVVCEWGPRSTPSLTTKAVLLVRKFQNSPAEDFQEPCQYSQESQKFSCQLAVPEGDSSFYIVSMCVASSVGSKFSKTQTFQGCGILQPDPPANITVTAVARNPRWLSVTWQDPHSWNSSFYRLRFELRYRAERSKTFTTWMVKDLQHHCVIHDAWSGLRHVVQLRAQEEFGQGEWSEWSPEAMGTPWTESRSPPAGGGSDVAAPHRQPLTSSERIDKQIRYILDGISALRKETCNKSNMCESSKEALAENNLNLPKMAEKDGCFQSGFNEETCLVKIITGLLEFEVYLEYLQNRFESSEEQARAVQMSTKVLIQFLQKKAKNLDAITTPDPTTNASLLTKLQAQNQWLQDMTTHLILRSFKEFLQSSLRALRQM
# Procedure: as §1
# recombinant human IL6 [3] = molecular target: T1, recombinant human IL6; assay: SPR Biacore, mAb captured by anti-mouse Fc, single cycle kinetics
# Hyper-IL6 [4] = molecular target: T2, Hyper-IL6; assay: SPR Biacore, mAb captured by anti-mouse Fc, HIL6 injected
# [5] = molecular target: T3, hu HIL6 Fc dimer (dimeric human HIL6/mouse IgG Fc fusion protein) (human); assay: SPR Biacore T100, binder captured by anti-human Fc
# T3 construct: also called human hyper-IL6 (IL6R-IL6-mIgG); dimeric HIL6
# T3 chain: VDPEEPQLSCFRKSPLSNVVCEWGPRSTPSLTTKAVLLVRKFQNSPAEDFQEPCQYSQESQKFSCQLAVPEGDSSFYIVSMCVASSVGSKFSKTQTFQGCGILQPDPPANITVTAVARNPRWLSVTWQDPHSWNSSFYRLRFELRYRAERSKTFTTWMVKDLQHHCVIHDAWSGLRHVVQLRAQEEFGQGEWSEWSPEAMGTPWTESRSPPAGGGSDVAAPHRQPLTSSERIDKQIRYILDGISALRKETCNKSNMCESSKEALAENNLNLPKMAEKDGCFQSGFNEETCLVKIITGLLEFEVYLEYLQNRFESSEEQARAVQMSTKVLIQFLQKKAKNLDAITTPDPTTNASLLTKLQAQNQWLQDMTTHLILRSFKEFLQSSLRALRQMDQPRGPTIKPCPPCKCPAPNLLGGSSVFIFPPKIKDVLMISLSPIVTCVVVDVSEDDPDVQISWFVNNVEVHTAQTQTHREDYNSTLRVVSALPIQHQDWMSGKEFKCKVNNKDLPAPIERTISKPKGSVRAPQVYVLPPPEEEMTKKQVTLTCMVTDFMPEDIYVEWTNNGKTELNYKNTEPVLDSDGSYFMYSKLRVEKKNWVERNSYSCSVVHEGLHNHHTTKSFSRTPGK
# sIL6R Fc dimer = molecular target: T4, sIL6R Fc dimer (UniProt P08887 20-358, limits assumed); assay: SPR Biacore T100, binder captured by anti-human Fc
# T4 construct: not shown: Fc
# T4 sequence (looked up): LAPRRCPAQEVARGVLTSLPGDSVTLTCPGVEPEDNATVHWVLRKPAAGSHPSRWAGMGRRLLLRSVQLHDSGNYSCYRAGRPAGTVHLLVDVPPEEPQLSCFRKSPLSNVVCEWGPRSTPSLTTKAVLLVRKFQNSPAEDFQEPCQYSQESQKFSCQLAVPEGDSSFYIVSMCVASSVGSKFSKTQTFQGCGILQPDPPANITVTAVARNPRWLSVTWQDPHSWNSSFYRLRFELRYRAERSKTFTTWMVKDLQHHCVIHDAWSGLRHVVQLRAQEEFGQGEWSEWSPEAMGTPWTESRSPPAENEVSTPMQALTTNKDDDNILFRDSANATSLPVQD
# recombinant human IL6 [6] = molecular target: T1, recombinant human IL6; assay: SPR Biacore T100, binder captured by anti-human Fc
# hu HIL6 AFH monomer = molecular target: T5, hu HIL6 AFH monomer (human); assay: SPR Biacore T100, binder captured by anti-human Fc
# T5 chain: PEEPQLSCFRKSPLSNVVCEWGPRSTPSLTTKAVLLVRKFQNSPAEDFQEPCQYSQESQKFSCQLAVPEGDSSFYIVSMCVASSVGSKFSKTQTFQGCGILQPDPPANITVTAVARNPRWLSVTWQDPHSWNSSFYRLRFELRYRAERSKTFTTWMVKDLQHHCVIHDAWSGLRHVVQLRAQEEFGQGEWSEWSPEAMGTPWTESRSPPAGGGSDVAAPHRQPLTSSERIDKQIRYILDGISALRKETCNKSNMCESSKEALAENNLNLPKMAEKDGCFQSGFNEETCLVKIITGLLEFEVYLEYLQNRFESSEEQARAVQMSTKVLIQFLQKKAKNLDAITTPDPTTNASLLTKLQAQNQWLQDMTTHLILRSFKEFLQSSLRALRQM
binder,measurement,setting,value
B1,Kd,recombinant human IL6 [1],0.048 nM
same,koff,recombinant human IL6 [1],0.0002 s⁻¹
same,kon,recombinant human IL6 [1],4.2e+06 M⁻¹ s⁻¹
same,Kd,Hyper-IL6 [2],0.046 nM
same,koff,Hyper-IL6 [2],0.00019 s⁻¹
same,kon,Hyper-IL6 [2],4.1e+06 M⁻¹ s⁻¹
B2,Kd,recombinant human IL6 [3],0.41 nM
same,koff,recombinant human IL6 [3],0.002 s⁻¹
same,kon,recombinant human IL6 [3],4.8e+06 M⁻¹ s⁻¹
same,Kd,Hyper-IL6 [4],0.444 nM
same,koff,Hyper-IL6 [4],0.00096 s⁻¹
same,kon,Hyper-IL6 [4],2.2e+06 M⁻¹ s⁻¹
B3,Kd,recombinant human IL6 [3],0.022 nM
same,koff,recombinant human IL6 [3],5e-05 s⁻¹
same,kon,recombinant human IL6 [3],2.3e+06 M⁻¹ s⁻¹
B4,Kd,[5],270 nM
same,binding result,sIL6R Fc dimer,no binding (tested: 100 nM)
same,binding result,recombinant human IL6 [6],no binding (tested: 100 nM)
same,Kd,hu HIL6 AFH monomer,190 nM

# — patent publication US20110142851A1 (EMERGENT PRODUCT DEVELOPMENT SEATTLE, published 2011)
